Test results taken from the DeepSol protein solubility set.

assay: soluble on expression in E. coli; label from the status in PepcDB or PDB records

Row | Sequence | soluble on expression in E. coli
1 | MEAVERAFRALDEGIADYLARKGIRPSCGPGCFACCYGWVTASRLEAQALLPHLTEAQKARVLEEGPRRLALLAREKDDPGFPRRFFLSRSPCPLLEAGLCGVYAHRPLACRGVLTDEDPAYCDPENPHPAPKPHHGPGHFLRVPHRMARRRMEELWEEERAQTGFLVLGELSGLLYLLLTGLPEDREGVEARLEALGVLGGRFGFQVVAAALEHHHHHH | not soluble
2 | GPGSMMRTQQVDPDLTPVLAALASRINRDLPTVVELLCRRLVVQWNRAYLRKDWRFVENASRYLGWLFLLNVVEVDIIYQLLLKHLTSEKRREEDIDQAAKLFRETFKVMSLKERRSFHEQILTPFRDLLAMDDEELRLSTRSQAVLESCLKEVQEWERRKEREEAIPDYLVLFDLEMQQRHEMDLDEKYPTEDALDRYAFDAEYDTHEEQYEAVRKAILGEDWEVELLQQV | not soluble
3 | MKPAAREARLPPRSPGLRWALPLLLLLLRLGQILCAGGTPSPIPDPSVATVATGENGITQISSTAESFHKQNGTGTPQVETNTSEDGESSGANDSLRTPEQGSNGTDGASQKTPSSTGPSPVFDIKAVSISPTNVILTWKSNDTAASEYKYVVKHKMENEKTITVVHQPWCNITGLRPATSYVFSITPGIGNETWGDPRVIKVITEPIPVSDLRVALTGVRKAALSWSNGNGTASCRVLLESIGSHEELTQDSRLQVNISGLKPGVQYNINPYLLQSNKTKGDPLGTEGGLDASNTERSRAGSPTAPVHDESLVGPVDPSSGQQSRDTEVLLVGLEPGTRYNATVYSQAANGTEGQPQAIEFRTNAIQVFDVTAVNISATSLTLIWKVSDNESSSNYTYKIHVAGETDSSNLNVSEPRAVIPGLRSSTFYNITVCPVLGDIEGTPGFLQVHTPPVPVSDFRVTVVSTTEIGLAWSSHDAESFQMHITQEGAGNSRVEITTNQSIIIGGLFPGTKYCFEIVPKGPNGTEGASRTVCNRTGKQI | soluble
4 | MSRMIFLFLIPVVTSCIPTQQIEMPCPTDWEKFERPSGPWCVKLFVGLYLQGNRNEASARCAAEGAVLSGVQNQAELNAMTRQFTKLRYGYFWVGAMRKTSCLMSQLTATCTALNSFEWTDGSTTGTDGFIWKTGDPNNYLYNLYE | not soluble
5 | MALVPYEESAAIGLQKFHKPLATFSFANHTIQIRQDWRQLGVAAVVWDAAVVLSMYLEMGAVELRGCSAVELGAGTGLVGIVAALPGAQVTITDRKVALEFLKSNVEANLPPHIQPKAVVKELTWGQNLESFSPGEFDLILGADVIYLEDTFTDLLQTLGHLCSNNSVILLACRIRYERDSNFLTMLERQFTVSKVHYDPEKDVHIYKAQKRNQREDL | not soluble
6 | MGSDKIHHHHHHMKKSTLIDKFLDLLSSRSSLREIQNNFIDANIMRDSSINQKYNGQRKSLAWEYISTLNLEDEAEFSKLLNVIETYLFQWNLYIHEVDEDEEINRLIKIINVLGYEYNKDTGKITKNEREVNLSTIKSLAIKFDIEYVLKECNRIEKEALTDPEDAITSAKSMVESTLKHILDSEGEKFNNNETLRGLYKKVSNIMNLSPGGHNENTFKTILSGMINVINGLDEVRNEYGDAHGKSKKNYRPETRHAFLAINAARTITEFLLASYKK | not soluble
7 | MARYTKEDIFRLAKEENVKYIRLQFTDLLGVIKNVEIPVSQLTKALDNKMMFDGSSIEGFVRIEESDMYLYPDLDTWVIFPWTAEKGKVARLICDIYNADGTPFEGDPRNNLKRVLKEMEALGFSDFNLGPEPEFFLFKVDEKGNPTLELNDNGGYFDLAPMDLGENCRRDIVLELEEMGFEIEASHHEVAPGQHEIDFKYANAIRSCDDIQTFKLVVKTIARKHGLHATFMPKPLYGVNGSGMHCNLSLFKNGENVFFDQNGDLQLSDDARHFIAGILKHAPAFTAVANPTVNSYKRLVPGYEAPCYVAWSAQNRSPLVRIPASRGISTRVEVRSVDPAANPYLVMATLLAAGLDGIKNKLTPPAAVDRNIYVMTKEEREEAGIVDLPATLAQALVTLQSNEVISNALGDHLLEHFIEAKEIEWDIFRTQVHQWERDQYMSLY | not soluble
8 | MREQISVLTQNLSQTIVGKDEAIRLVLVALLSGGHALLEDVPGVGKTLLAKSLARSINGKFQRVQCTPDLLPTDITGTNIWNPSSREFEFLPGPAFANILLADEINRATPRTQAALLEVMEEKQVTVDGETRLVPHPFFVIATQNPIEYQGTFPLPEAQLDRFALSLSLGYPSEAEELKMLQRQQNPEAIAVGDLESCISLEEVEALQKAVRQVKLTEDLQQYLLRLVRASRTDEDVTLGVSPRGTTALQRATQAFAFLEERDYAIDDDVKFVAPHVLAHRLIPASGKDPKAILQRLLDSVPILEHHHHHH | not soluble
9 | MGSDKIHHHHHHMYQNDFVMPKSVYLLNHSVGRPLQSLRQAFDERFFLPWQGSGREPWGDWLSVVEDFRVQLARLFNSETRLFCPQVNLSSGLTKLVQSHSRLRRPGAVILMSENDFPSMGFALRQALPEAEIRFIPANLDVSLAEVWQAHLTDDIDLVFISHAYSNTGQQAPLDYLIPKVRELGALSLVDVAQAAGVLPLDLNALKPDFMLGSSVKWLCGGPGAAYLWVSAAQLVHCSPQDVGWFSHENPFEFDIHDFRYHDSALKFWGGTPSVAPFALAAHSIGYFAELGSDKVRQHNLMQLQRIWRQAGDALVSPSDAARCSGTAILDFGEDQQAVVEALTQADISLDVRKQGMRISPHIYNGEQDLQRLLEALAPFCR | not soluble
10 | MKHHHHHHHHGGLVPRGSHGMTKKIVAIWAQDEEGVIGKDNRLPWYLPAELQHFKETTLNHAILMGRVTFDGMGRRLLPKRETLILTRNPEEKIDGVATFHDVQSVLDWYSAQEKNLYIVGGKQIFQAFEPYLDEVIVTHIHARVEGDTYFPAEFDLSLFETVSSKFYTKDEKNPYDFTIQYRKRKEVLE | soluble
11 | MSLEKHNEHKTLNHKSSKEKDQITNRLKRIEGQVRGIQNMVENDRYCVDILVQISAVQAAMKNVALHLLEDHAHHCVADAIKSGDGEQAISELLDVFKKFTKSEGHHHHHH | soluble
12 | MAESRRKYYFPDVTDEQWNDWHWQVLNRIETLDQLKKYVTLTAEEEEGVKESLKVLRMAITPYYLSLIDPENPNCPIRKQAIPTHQELVRAPEDQVDPLSEDEDSPVPGLTHRYPDRVLFLITDKCSMYCRHCTRRRFAGQKDASSPSERIDRCIDYIANTPTVRDVLLSGGDALLVSDERLEYILKRLREIPHVEIVRIGSRTPVVLPQRITPQLVDMLKKYHPVWLNTHFNHPNEVTEEAVEACERMANAGIPLGNQTVLLRGINDCTHVMKRLVHLLVKMRVRPYYIYVCDLSLGIGHFRTPVSKGIEIIENLRGHTSGYAVPTFVVDAPGGGGKIPVMPNYVVSQSPRHVVLRNYEGVITTYTEPENYHEECDCEDCRAGKHKEGVAALSGGQQLAIEPSDLARKKRKFDKN | soluble
13 | MSLDGKPTIIIKYGKIDEEAMKSQRYNFDDLMVQLRENSIDRVADVSFAILEPSGKLTIVKKENSGEHRQLEMPLIIDGFIQTENLSRISKDRKWLLESLQKHGYTNPSDISFCSFTDGEIYIDEKDGHRTKGIITITTDPNSSSVDKLAAALEHHHHHH | soluble
14 | QSQSNQATPSKVVSGEVNAASFAQFSNAFIDDLWQLSPTWALYSGKHVNDGYLEIPDEAGRVKTLAFVKAQQAKLKQFELKSLTSNETIDYHLIDNLLSSMAWDITRFKSWQWDPSSYNVAGGFAQIINENFAPLDDRLRSVLARMENIPAYYAAARGNISQPTLEHTELAVLQNQGAFSVFSDDLLKQVADSGLSDAEKALFKTRFDIASKAINEHISWLNAQVSQLKKEGARSFRIGEELYEQKFAFDIQAGMTAKQLYQKAMVDKDRVQGEMAKITDKLWPKYFTTPKPSDNKIAIRQLIDKLSTKHVKRDDFVSEVRKQIPELIEFVNQKNIVTLDPKKPLVVRETPEYMRGYAGASISAPGPYDKLGNTYYNVTPLDGMSNESAESYLREYNHWILQILNIHEAIPGHYTQLVYSNESPSLVKSLFGNGAMVEGWAVYTERMMLEEGYGNFEPEMWLMYYKWNLRVICNTILDYSIHVKGMTEEQAIALMMDEAFQQRAEAEGKWRRATLSQVQLTSYYSGYREIYDFREEYKQLKGKDFDLKAFHEKFLSYGSAPVKYIRQLMLE | soluble
